Assay results published in the supplement of paper PMC7877785.
± gives the uncertainty stated by the source.

Assay: self-splicing fitness, log relative to wild type (ln ratio); higher = more splicing; Tetrahymena group I intron in knt gene, E. coli kanamycin selection, DiMSum; sequences stand for … in CUCUCU…GGAGGGAAAAGUUAUCAGGCAUGCACCUGGUAGCUAGUCUUUAAACCAAUAGAUUGCAUCGGUUUAAAAGGCAAGACCGUCAAAUUGCGGGAAAGGGGUCAACAGCCGUUCAGUACCAAGUCUCAGGGGAAACUUUGAGAUGGCCUUGCAAAGGGUAUGGUAAUAAGCUGACGGACAUGGUCCUAACCACGCAGCCAAGUCCUAAGUCAACAGAUCUUCUGUUGAUAUGGAUGCAGUUCACAGACUAAAUGUCGGUCGGGGAAGAUGUAUUCUUCUCAUAAGAUAUAGUCGGACCUCUCCUUAAUGGGAGCUAGCGGAUGAAGUGAUGCAACACUGGAGCCGCUGGGAACUAAUUUGUAUGCGAAAGUAUAUUGAUUAGUUUUGGAGUACUCGUGGUCG
Summary of the method: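 Pooled colonies went to amplicon sequencing on an Illumina HiSeq 2500 after six replicate transformations. The plates were LB agar with 100 μg/mL carbenicillin, 50 μM IPTG and 0.2% rhamnose, with or without 25 μg/mL kanamycin, incubated overnight at 37°C or 30°C. The E. coli BL21(DE3) library had all eight P1ex-region intron nucleotides randomised, the intron placed in the knt kanamycin-resistance gene on pET-22b(+). DiMSum fitness is the error-weighted combination of replicate fold changes, kanamycin against none, normalised to wild type.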

| Sequence | self-splicing fitness (ln) (30 °C) | self-splicing fitness (ln) (37 °C) |
| --- | --- | --- |
| CUCUAGCAAUAUUACGACUG | -1.68 ± 0.15 | -0.621 ± 0.18 |
| CUCUAGCAAUAUUACGAUCC | -2.43 ± 0.31 | -2.11 ± 0.3 |
| CUCUAGCAAUAUUACGCAGU | -4.21 ± 0.24 | -4.07 ± 0.23 |
| CUCUAGCAAUAUUACGCAUG | -4.85 ± 0.41 | -3.07 ± 0.3 |
| CUCUAGCAAUAUUACGCCAA | -2.35 ± 0.47 | -2.31 ± 0.45 |
| CUCUAGCAAUAUUACGCCAC | -2.66 ± 0.28 | – |
| CUCUAGCAAUAUUACGCGAC | -3.14 ± 0.24 | -2.75 ± 0.3 |
| CUCUAGCAAUAUUACGCGGG | -3.39 ± 0.18 | -1.41 ± 0.14 |
| CUCUAGCAAUAUUACGCUAU | -3.8 ± 0.39 | -2.79 ± 0.3 |
| CUCUAGCAAUAUUACGGCUU | -3.45 ± 0.32 | -3.52 ± 0.42 |
| CUCUAGCAAUAUUACGGUCA | -3.27 ± 0.29 | -3.17 ± 0.37 |
| CUCUAGCAAUAUUACGUAAG | -1.57 ± 0.11 | -0.426 ± 0.15 |
| CUCUAGCAAUAUUACGUACU | -3.33 ± 0.27 | -2.39 ± 0.25 |
| CUCUAGCAAUAUUACGUCGU | -3.66 ± 0.26 | -4.15 ± 0.36 |
| CUCUAGCAAUAUUACGUCUG | -2.34 ± 0.12 | -2.27 ± 0.18 |
| CUCUAGCAAUAUUACGUGAU | -3.45 ± 0.15 | -3.92 ± 0.24 |
| CUCUAGCAAUAUUACGUGUG | -2.93 ± 0.11 | -2.89 ± 0.14 |
| CUCUAGCAAUAUUACGUUGC | -3.71 ± 0.3 | -3.08 ± 0.35 |
| CUGAAGCAAUAUUACGAUAU | -3.39 ± 0.16 | -1.27 ± 0.19 |
| CUGAAGCAAUAUUACGAUCG | 0.00255 ± 0.12 | -0.0487 ± 0.13 |
| CUGAAGCAAUAUUACGCGAG | -0.671 ± 0.088 | -0.527 ± 0.11 |
| CUGAAGCAAUAUUACGCGAU | -0.358 ± 0.071 | 0.0463 ± 0.086 |
| CUGAAGCAAUAUUACGCGUG | -0.382 ± 0.041 | 0.0264 ± 0.063 |
| CUGAAGCAAUAUUACGCUCU | -3.29 ± 0.25 | -3.3 ± 0.47 |
| CUGAAGCAAUAUUACGCUUA | -3.82 ± 0.3 | -2.13 ± 0.23 |

| Sequence | self-splicing fitness (ln) (30 °C) | self-splicing fitness (ln) (37 °C) |
| --- | --- | --- |
| CUGAAGCAAUAUUACGCUUC | -3.51 ± 0.19 | -2.56 ± 0.19 |
| CUGAAGCAAUAUUACGGGAC | -0.993 ± 0.072 | -0.612 ± 0.1 |
| CUGAAGCAAUAUUACGGGCA | -3.04 ± 0.22 | -1.25 ± 0.2 |
| CUGAAGCAAUAUUACGGGGA | -3.06 ± 0.43 | -2.36 ± 0.37 |
| CUGAAGCAAUAUUACGGUAG | -0.283 ± 0.054 | -0.509 ± 0.061 |
| CUGAAGCAAUAUUACGUACU | -3.61 ± 0.31 | -2.92 ± 0.34 |
| CUGAAGCAAUAUUACGUCCG | 0.226 ± 0.083 | 0.658 ± 0.13 |
| CUGAAGCAAUAUUACGUCUA | -0.846 ± 0.077 | -0.487 ± 0.1 |
| CUGAAGCAAUAUUACGUGCU | -4.66 ± 0.34 | -2.95 ± 0.34 |
| CUGAAGCAAUAUUACGUUAA | -3.39 ± 0.16 | -2.65 ± 0.28 |
| CUGAAGCAAUAUUACGUUAG | -0.376 ± 0.063 | 0.25 ± 0.096 |
| CUGAAGCAAUAUUACGUUUU | -3.46 ± 0.2 | -3.22 ± 0.17 |
| CUGCAGCAAUAUUACGACGC | -3.79 ± 0.27 | -3.06 ± 0.29 |
| CUGCAGCAAUAUUACGACGU | -2.98 ± 0.18 | -2.49 ± 0.29 |
| CUGCAGCAAUAUUACGAGCU | -2.93 ± 0.18 | -2.25 ± 0.21 |
| CUGCAGCAAUAUUACGAUCU | -4.3 ± 0.43 | -2.46 ± 0.27 |
| CUGCAGCAAUAUUACGCCUA | – | -0.55 ± 0.23 |
| CUGCAGCAAUAUUACGCCUC | -4.25 ± 0.42 | -2.16 ± 0.5 |
| CUGCAGCAAUAUUACGCGCU | -2.68 ± 0.2 | -2.27 ± 0.22 |
| CUGCAGCAAUAUUACGCGGG | -3.94 ± 0.23 | -1.65 ± 0.18 |
| CUGCAGCAAUAUUACGCUAG | -3.01 ± 0.17 | -2.02 ± 0.24 |
| CUGCAGCAAUAUUACGCUAU | -4.29 ± 0.25 | -3.04 ± 0.25 |
| CUGCAGCAAUAUUACGCUCA | – | -2.21 ± 0.35 |
| CUGCAGCAAUAUUACGCUUC | – | -1.03 ± 0.21 |
| CUGCAGCAAUAUUACGGAAG | -1.56 ± 0.072 | -0.784 ± 0.095 |

| Sequence | self-splicing fitness (ln) (30 °C) | self-splicing fitness (ln) (37 °C) |
| --- | --- | --- |
| CUGCAGCAAUAUUACGGACC | -5.3 ± 0.36 | -2.18 ± 0.31 |
| CUGCAGCAAUAUUACGGCAC | -3.13 ± 0.14 | -0.857 ± 0.12 |
| CUGCAGCAAUAUUACGGCAU | -0.953 ± 0.057 | -0.378 ± 0.071 |
| CUGCAGCAAUAUUACGGCGU | – | -1.04 ± 0.32 |
| CUGCAGCAAUAUUACGGUCC | -3.4 ± 0.23 | -2.99 ± 0.37 |
| CUGCAGCAAUAUUACGGUCU | -3.44 ± 0.17 | -2.07 ± 0.2 |
| CUGCAGCAAUAUUACGGUGG | -3.9 ± 0.19 | -3.09 ± 0.24 |
| CUGCAGCAAUAUUACGUCGA | -3.05 ± 0.12 | -1.65 ± 0.1 |
| CUGCAGCAAUAUUACGUGAC | -0.842 ± 0.063 | 0.23 ± 0.084 |
| CUGCAGCAAUAUUACGUGCC | -2.23 ± 0.21 | -2.26 ± 0.26 |
| CUGCAGCAAUAUUACGUGUA | -3.82 ± 0.23 | -2.63 ± 0.16 |
| CUGCAGCAAUAUUACGUGUU | -4.86 ± 0.31 | -2.28 ± 0.19 |
| CUGGAGCAAUAUUACGAAUU | – | -1.27 ± 0.29 |
| CUGGAGCAAUAUUACGACGA | -1.9 ± 0.29 | -1.7 ± 0.33 |
| CUGGAGCAAUAUUACGAGGU | -3.48 ± 0.23 | -2.11 ± 0.17 |
| CUGGAGCAAUAUUACGAUGC | – | -1.84 ± 0.4 |
| CUGGAGCAAUAUUACGAUGG | -3.66 ± 0.26 | -1.47 ± 0.22 |
| CUGGAGCAAUAUUACGCAAA | -3.87 ± 0.42 | – |
| CUGGAGCAAUAUUACGCCGU | -2.44 ± 0.4 | -1.06 ± 0.38 |
| CUGGAGCAAUAUUACGCUUC | -2.1 ± 0.28 | – |
| CUGGAGCAAUAUUACGGAGA | -3.11 ± 0.42 | – |
| CUGGAGCAAUAUUACGGCGG | -0.649 ± 0.16 | -1.44 ± 0.26 |
| CUGGAGCAAUAUUACGGGCC | – | -2.19 ± 0.31 |
| CUGGAGCAAUAUUACGGUAC | -2.41 ± 0.18 | -2.84 ± 0.27 |
| CUGGAGCAAUAUUACGUAGA | – | -2.67 ± 0.2 |

| Sequence | self-splicing fitness (ln) (30 °C) | self-splicing fitness (ln) (37 °C) |
| --- | --- | --- |
| CUGGAGCAAUAUUACGUAGG | -1.78 ± 0.071 | -1.4 ± 0.095 |
| CUGGAGCAAUAUUACGUCGC | -2.03 ± 0.46 | -2.57 ± 0.48 |
| CUGGAGCAAUAUUACGUCUG | 0.206 ± 0.068 | 0.0818 ± 0.099 |
| CUGGAGCAAUAUUACGUGAC | -1.85 ± 0.18 | -0.992 ± 0.24 |
| CUGGAGCAAUAUUACGUGUC | -3.17 ± 0.2 | -3.18 ± 0.27 |
| CUGUAGCAAUAUUACGAACU | -2.78 ± 0.26 | – |
| CUGUAGCAAUAUUACGACUU | -2.12 ± 0.21 | -1.36 ± 0.33 |
| CUGUAGCAAUAUUACGAGGU | -4.23 ± 0.28 | -2.42 ± 0.21 |
| CUGUAGCAAUAUUACGCCUG | -0.759 ± 0.14 | 0.521 ± 0.16 |
| CUGUAGCAAUAUUACGCGGC | -2.51 ± 0.47 | -2.14 ± 0.3 |
| CUGUAGCAAUAUUACGCUAC | -3.21 ± 0.35 | -1.39 ± 0.32 |
| CUGUAGCAAUAUUACGCUUU | -3.83 ± 0.17 | -3.19 ± 0.21 |
| CUGUAGCAAUAUUACGGCGU | -3.75 ± 0.33 | -2.2 ± 0.33 |
| CUGUAGCAAUAUUACGGGAA | -1.49 ± 0.29 | -2.12 ± 0.35 |
| CUGUAGCAAUAUUACGUACG | -1.43 ± 0.21 | -1.05 ± 0.19 |
| CUGUAGCAAUAUUACGUACU | -2.61 ± 0.11 | -1.3 ± 0.13 |
| CUGUAGCAAUAUUACGUCAA | -2.56 ± 0.19 | -1.85 ± 0.19 |
| CUGUAGCAAUAUUACGUCCG | -0.133 ± 0.08 | 0.0507 ± 0.11 |
| CUGUAGCAAUAUUACGUCGA | -2.71 ± 0.35 | -1.06 ± 0.35 |
| CUGUAGCAAUAUUACGUUAA | -3.31 ± 0.33 | -1.49 ± 0.23 |
| CUGUAGCAAUAUUACGUUGA | -2.93 ± 0.2 | -2.43 ± 0.2 |
| CUUAAGCAAUAUUACGAAAU | -3.41 ± 0.24 | -2.48 ± 0.26 |
| CUUAAGCAAUAUUACGACAA | -2.75 ± 0.41 | -2.98 ± 0.34 |
| CUUAAGCAAUAUUACGACGG | -0.508 ± 0.1 | -0.291 ± 0.13 |
